assay type: physicochemical; conditions: 10 mM PBS buffer (pH=7.4), 37° C., 100 rpm shaker; free drug by HPLC, average release per day
Description: The drug release and stability experiments were run using the test compounds. About 2.5±1.0 mg/mL (with regard to conjugate) solution of each test compound was prepared with 10 mM PBS buffer (pH=7.4) in Millipore Amicon® Ultra-0.5 ml 30 k Ultrafiltration centrifuge tube. The solution was kept swelling for 1 h at room temperature and then placed in a shaker at 100 rpm, 37° C. for continuous experiment. At the same time point of each day, samples were centrifuged at 10000 rpm for 1 h. The aliquot was transferred to HPLC vial for analysis. An 0.4 mL of 10 mM PBS buffer was added into the centrifuge tube and continue the experiment.
For the HPLC analysis at each time point, the peak areas of all relevant peaks from the chromatograms were retrieved and the concentration of free drug was calculated. Average release of free drug was calculated based on the sum of free drug and numbers of experiment days. The computing equation is as below.
The sample degradation rate was calculated based on the concentration and degree of substitution (NMR) for conjugated drug with regard to the initial starting point of the experiment (at t=0). The computing equation is as below.

First: Conjugate of HA and 2-((2S,6αS,6βR,7S,8αS,8βS,11αR,12αS,12βS)-2,6β-difluoro-7-hydroxy-6α,8α,10,10-tetramethyl-4-oxo-1,2,4,6α,6β,7,8,8α,11α,12,12α,12β-dodecahydro-8βH-naphtho[2′,1′:4,5]indeno[1,2-d][1,3]dioxol-8β-yl)-2-oxoethyl 6-aminohexanoate [Example 23]
Second: Conjugate of HA and 2-((6S,8S,9S,10R,11S,13S,14S,17R)-11,17-dihydroxy-6,10,13-trimethyl-3-oxo-6,7,8,9,10,11,12,13,14,15,16,17-dodecahydro-3H-cyclopenta[a]phenanthren-17-yl)-2-oxoethyl 4-aminobutanoate [Example 42]
The Release rate of the first is lower: 1.01 %/day for the first, 2.88 %/day for the second.

Compared with “Conjugate of HA and 2-((6S,8S,9S,10R,11S,13S,14S,17R)-11,17-dihydroxy-6,10,13-trimethyl-3-oxo-6,7,8,9,10,11,12,13,14,15,16,17-dodecahydro-3H-cyclopenta[a]phenanthren-17-yl)-2-oxoethyl 5-aminopentanoate [Example 78]”, “Conjugate of HA and 2-((6S,8S,9S,10R,11S,13S,14S,17R)-11,17-dihydroxy-6,10,13-trimethyl-3-oxo-6,7,8,9,10,11,12,13,14,15,16,17-dodecahydro-3H-cyclopenta[a]phenanthren-17-yl)-2-oxoethyl 6-aminohexanoate [Example 82]” is lower in Release rate: 8.92 %/day for the first, 2.30 %/day for the second.

First: Conjugate of HA and 2-((6αS,6βR,7S,8αS,8βS,11αR,12αS,12βS)-6β-fluoro-7-hydroxy-6α,8α,10,10-tetramethyl-4-oxo-1,2,4,6α,6β,7,8,8α,11α,12,12α,12β-dodecahydro-8βH-naphtho[2′,1′:4,5]indeno[1,2-d][1,3]dioxol-8β-yl)-2-oxoethyl 2,5-diazabicyclo[2.2.1]heptane-2-carboxylate [Example 58]
Second: Conjugate of HA and 2-((6αS,6βR,7S,8αS,8βS,11αR,12αS,12βS)-6β-fluoro-7-hydroxy-6α,8α,10,10-tetramethyl-4-oxo-1,2,4,6α,6β,7,8,8α,11α,12,12α,12β-dodecahydro-8βH-naphtho[2′,1′:4,5]indeno[1,2-d][1,3]dioxol-8β-yl)-2-oxoethyl glycylglycylglycinate [Example 19]
The Release rate of the first is lower: 0.25 %/day for the first, 17.57 %/day for the second.

Going from “Conjugate of HA and 2-((8S,9R,10S,11S,13S,14S,16R,17R)-9-fluoro-11,17-dihydroxy-10,13,16-trimethyl-3-oxo-6,7,8,9,10,11,12,13,14,15,16,17-dodecahydro-3H-cyclopenta[a]phenanthren-17-yl)-2-oxoethyl 4-aminobutanoate [Example 44]” to “Conjugate of HA and 2-((8S,9R,10S,11S,13S,14S,16R,17R)-9-fluoro-11,17-dihydroxy-10,13,16-trimethyl-3-oxo-6,7,8,9,10,11,12,13,14,15,16,17-dodecahydro-3H-cyclopenta[a]phenanthren-17-yl)-2-oxoethyl 5-aminopentanoate [Example 79]”, the Release rate rises from 1.12 %/day to 4.42 %/day.

Going from “Conjugate of HA and 2-((8S,9R,10S,11S,13S,14S,16R,17R)-9-fluoro-11,17-dihydroxy-10,13,16-trimethyl-3-oxo-6,7,8,9,10,11,12,13,14,15,16,17-dodecahydro-3H-cyclopenta[a]phenanthren-17-yl)-2-oxoethyl 6-aminohexanoate [Example 83]” to “Conjugate of HA and 2-((8S,9R,10S,11S,13S,14S,16S,17R)-9-fluoro-11,17-dihydroxy-10,13,16-trimethyl-3-oxo-6,7,8,9,10,11,12,13,14,15,16,17-dodecahydro-3H-cyclopenta[a]phenanthren-17-yl)-2-oxoethyl 4-aminobutanoate [Example 46]”, the Release rate rises from 2.15 %/day to 2.95 %/day.

First: Conjugate of HA and 2-((8S,9R,10S,11S,13S,14S,16S,17R)-9-fluoro-11,17-dihydroxy-10,13,16-trimethyl-3-oxo-6,7,8,9,10,11,12,13,14,15,16,17-dodecahydro-3H-cyclopenta[a]phenanthren-17-yl)-2-oxoethyl 6-aminohexanoate [Example 84]
Second: Conjugate of HA and 2-((8S,9S,10R,11S,13S,14S,17R)-11,17-dihydroxy-10,13-dimethyl-3-oxo-2,3,6,7,8,9,10,11,12,13,14,15,16,17-tetradecahydro-1H-cyclopenta[a]phenanthren-17-yl)-2-oxoethyl 4-aminobutanoate [Example 38]
The Release rate of the first is higher: 3.73 %/day for the first, 1.71 %/day for the second.

Compared with “Conjugate of HA and 2-((8S,9S,10R,11S,13S,14S,17R)-11,17-dihydroxy-10,13-dimethyl-3-oxo-2,3,6,7,8,9,10,11,12,13,14,15,16,17-tetradecahydro-1H-cyclopenta[a]phenanthren-17-yl)-2-oxoethyl 5-aminopentanoate [Example 76]”, “Conjugate of HA and 2-((8S,9S,10R,11S,13S,14S,17R)-11,17-dihydroxy-10,13-dimethyl-3-oxo-2,3,6,7,8,9,10,11,12,13,14,15,16,17-tetradecahydro-1H-cyclopenta[a]phenanthren-17-yl)-2-oxoethyl 6-aminohexanoate [Example 93]” is higher in Release rate: 2.66 %/day for the first, 7.67 %/day for the second.

Compared with “Conjugate of HA and 2-((8S,9S,10R,11S,13S,14S,17R)-11,17-dihydroxy-10,13-dimethyl-3-oxo-6,7,8,9,10,11,12,13,14,15,16,17-dodecahydro-3H-cyclopenta[a]phenanthren-17-yl)-2-oxoethyl 4-aminobutanoate [Example 36]”, “Conjugate of HA and 2-((8S,9S,10R,11S,13S,14S,17R)-11,17-dihydroxy-10,13-dimethyl-3-oxo-6,7,8,9,10,11,12,13,14,15,16,17-dodecahydro-3H-cyclopenta[a]phenanthren-17-yl)-2-oxoethyl 6-aminohexanoate [Example 81]” is lower in Release rate: 2.89 %/day for the first, 1.71 %/day for the second.

Going from “Conjugate of HA and 2-((8S,9S,10R,11S,13S,14S,17R)-11,17-dihydroxy-10,13-dimethyl-3-oxo-6,7,8,9,10,11,12,13,14,15,16,17-dodecahydro-3H-cyclopenta[a]phenanthren-17-yl)-2-oxoethyl-5-aminopentanoate [Example 75]” to “Conjugate of HA and 2-((8S,9S,10R,13S,14S,17R)-17-hydroxy-10,13-dimethyl-3,11-dioxo-2,3,6,7,8,9,10,11,12,13,14,15,16,17-tetradecahydro-1H-cyclopenta[a]phenanthren-17-yl)-2-oxoethyl 4-aminobutanoate [Example 40]”, the Release rate falls from 4.80 %/day to 2.49 %/day.

Going from “Conjugate of HA and 2-((8S,9S,10R,13S,14S,17R)-17-hydroxy-10,13-dimethyl-3,11-dioxo-2,3,6,7,8,9,10,11,12,13,14,15,16,17-tetradecahydro-1H-cyclopenta[a]phenanthren-17-yl)-2-oxoethyl 5-aminopentanoate [Example 77]” to “Conjugate of HA and 2-((8S,9S,10R,13S,14S,17R)-17-hydroxy-10,13-dimethyl-3,11-dioxo-2,3,6,7,8,9,10,11,12,13,14,15,16,17-tetradecahydro-1H-cyclopenta[a]phenanthren-17-yl)-2-oxoethyl 6-aminohexanoate [Example 94]”, the Release rate falls from 4.81 %/day to 2.85 %/day.
